Test: protease stability score; higher = more stable; yeast display proteolysis, trypsin and chymotrypsin;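 note: relative to predicted unfolded state with 0 unfolded-like and 1 meaning tenfold more protease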

Sequence | protease stability score
SEEDDDSREVLELFVRLMVTGDFHELAELLDPNVRTHINGKERVGREQMIKILKRLFDEWGVDRVIVHVKHIDVQGEKAHMDGTLIYGDKMQKSHVTLIYVNGRLERIHIELN | 1.13
DEDKHLSDYAMELELHAIKTGDEDLWRELIDPNARLIVGDKTFHGWEHLVTFMVSLGVKHVKLKDLKIQGDKMHSKLEIEFDGRTRTYHVVSLKVDGRWVIESVEVR | 1.06
DEDHEELHHWSRLTLESIKTGNEDELHKFADPNVRFKVNGKDIHGMESFVRFMLEFIDRYPNLVLEEKHFHVVNGRMIQIIRVRVGDKTSEIFLIAHKVDGRWHLEHMEIR | 1.08
DEDEEIIEKWVKMMLDAAHTGDERIIEENFDPNTRIHVDGQNHHGREHVHELRRRADYIRIILIIRSIRTQGDYVHVKGEIRIRINWNGRELHLEVEVEIIFLKFDGRWHIRSIVSI | 0.889
DEREKRWRKLHQDILEAIWTGDEETFLRLADPDMRFYLIVNGRTVDLHGMELASVVLHERRKRFKNATWHLKSERVQGNYSELNEELIVGDKTYDIRINLVHIDGKLHSVVIEDI | 1.01
DEQSRVSEEVIKIWLESVNTGDEKSLSELIDPNVKIHVNGKKMHGWRDAEDHARRIDHMHVEDFKIESIQTQGDFAILHGRLVYSRIVNGVELHSDEHVEMVILKYNGRWSIEEVRVR | 1.27
SESEEDAHKASREITHMLYTGNEELWSTLADPNTRIVINGVEVHGREQVVRVIRELLRRFGVDKVHSELRTVDVQGEKVEIHSHYVQGDKSYDIILVMNKIDGRWHLQRQSIR | 1.18
DEERKEYEDALTLFIEYLLTGDFERLEHLADPTTRLIVNGQEFHGRELVMRQLLEIRFHDHKLHDYKVVNGVAILDTRDRGIINGQETIFKTHIVLQKIDGRWVLRRYEIR | 1.38
SEDERDAKFATDLVLHLLRTGDEEKLLQLLDPNVRVEQGNKDWHGREDWHDFMEIMGIDHMTIHHVELRVVNGRVESHVDIRLLVNGRDDDVQLVLFMKKVDGRWRVTSLRFIYR | 1.74
DRIEEEFEFALRHLIHNWVTGDETRLQKLADPNVRTVFEGREHHGRESFTELVHEIRFHDFRLRDYKIQGNKIVVDGEFDVDINGVRRIIRVELEIIKINGRWYIHSISFL | 0.203
SEEEELWRLAEETSERIIRTGDFTRLEEMIDPDARMHIDGRTHHGRETISKILLHELTRIKNVKFEIKHKSSQGDWVDIDLILRFDGKTEHIRYYVYKINGQWFLHSIEYH | 1.19
SEDHEMVKKLIHDLMRARSTGDEEEFYKLLDPHVRSDINGQETHGREEFVHWFIRHHHEFGFDHVERVHLHHIELIGDKIHVDLIVHITVGEYTIVTHEHLVIWKIDGRWVLRSMDLH | 1.43
DEDHEISKRALEQWIHDLHTGDEDTLRKFADPNARMEVDGVEHHGMELAMRILLRIDVTEIRIKDMRIVDGRVEIDGEVRDKVNGKTRESRVHLYVLKVDGRWVMESITIQ | 0.476
DEDEENIRKEVEIFKHLLETGNEQEMSKLADPNTRFYYGDKTIHGREEMIKFLHEEWRHLGVKHNEYRVKEMRSINGRAIIHGELIWKSENEIIHRDVLIIARKVDGKWVSESVHVH | 1.23
KEEEEEARQAWDLLHNIMKTGDEHQLMSLVDPNYLNIAEGREFHGREVFYHYMHELRVKWEHMHLKDYRVYNGRIRTEEHLVVHYEYGDKHDSLRTDVHLKDVKINGRWRVRHLHII | 0.78
SDEEKESKHMFKIYLDFLRTGNEEQYSEMADPNVRIEVNGVTIHGRELAVKFMKEVRDEMRIHDYRIRHLDVFNGRVHADTEENVEFNGVRFITRTKIHLHIVNGRIKSVREEID | 0.903
REEEKDIRDVLKLWKDISRTGDEHLIRRLVDPNARLNFNGREIHGREDVAEFLLRRWRQIDHLEIIDRDVRYQGDKVEFHGHVREKIGDKEETYELEFILVKIDGRWLVHSLHVH | 2.43
DEDTRLEKEFLRILEEILKTGDEERLRRLVDPNTRLEVGDKRFHGWDAVHYMLRIFGIERIHFELTSRRRVNGRLELDGILRFNGRDHDTHIIIDKINGVWIVREERVE | 2.19
DHEKKEIEDLLRELFEALFTGDEHILHRLLDPRTKLVINGRNYHGRETVRRFVLHIRIFFHHIEIESSEIQGEWIHLHIRVDFREEQGDKERRIDTHAVMHMLKVNGRWVIHEIVLH | 1.54
HEKEHRLHEIMELWLKLVQTGNEEILMELADPHTKLDIGDKHLHGRELTSRFLLHMRIEDLTIKRIDVQGDYAHIDGHVIGVINGRRFISDRHIHLDIYNGKHRRVEVRIE | 1.01
SEDEELTNKMRHLFLHAVRTGDETVLNRLIDPNTKLHINGVDIHGREEVRTLLREMRRHEFRTRTVEIRVIDGRVEVREDVERNGVVNGQEYETRVIIIYHAVKVDGKWVWTEIRFEER | 0.609
SEEEHELDHIAKEFLRVYLTGDEDELRKLMDPNARVDINGREMIGMELILKDLRDRLEHLGIKHSHITIREVQNFDGQIHIRGHIRIEIGNKRLEFDSRIIMHVIDGRLRSFHVIFI | 1.92
DEKEEHLDELARLFWEVHHTGNEEVFEELFDPRMRLIFNGQQYIGMEKAVKIESRVKNITVRLETYRVINGRIEIHENWRQGEKEIKFEIRIVVIDGVAKEMERIFREK | 1.09
SEEHHIIHKFLEDFLRSWITGDEKSMKELLDPHAKVDIRVNGRDVHPHGWEFLEWYKRFFKNAQFRVHDIDVQGNKVHLITEVVVNGQKEEMHIHLQVVDGRAERVETRIH | 1.9
HEDDEMKKKWFEEWERRIHTGDEEEINKLADPHVRLEIGDKTRHGREEFTRYLWEFLYEFGANHVEIRYEEIRIINGVVHIRSRIHIHVDGRHIHLETHLIVFKFDGQWRLHTLHYK | 0.872

Sequence | protease stability score
DEDEERAKKLAEDTLHSWRTGNEEHMIKLADPNVRVEWNGKDFVGREEFKRSVHKMLRDLGVDNIEVRLDHIEVDEDHAIVYGEVIYNGRISQIEWVFRKVNGRWYLHRMHIRDR | 1.54
SEDEEAAHWLTLVLIELFRTGDEDSFTKLLDPNARMHVGDKDFHGRHHILHWILHFLRELGVDHRDMKVEDQHFYDGRLELHVTIIIIVGDKKIRIESHFYVEKVNGRWLVKKIHIH | 1.41
EEEEENAKQFFHIWERSMRTGDEKTLHELADPHVRAVIGDKHHIGREEFHEVIRQTMEHIRVDDMILHTIMVYDGKVEILGRLVVRVGDKTHEVHVKIQVEKINGRWLLTELHIK | 0.074
DDWEKLYEELTRLWLKLLITGDEEILIKLMDPHYRYHQGDKELHGRESYAEEVRREYEHARVKIHVERIHVFENHVEVNGELKIEINGRHYSIRTRIHLNIVNGKIKSIEIRTD | 1.39
DELEEETERMFRIIIEFMLTGDWKTLYKLFDPNMLMIINGKELHGRESMATALKFWLRHIREDDIKIHHVELQGEKAISDGRSRGEIGDKEQTRKVHIEVIVINGRVHHVRVDIH | 0.819
SEDERLAREVIEILHNIMHTGDEHLLDEMLDPNAKVHFDGKDFHGMDVWIKFLIEIRVDSIHVRRVHSINGVLHVDSELDGTINGKKDIRRTRIIMEKVDGRWRVTEVRYV | 1.41
SDEEREFDIAFHLMRHVERTGDPHDMTKMADPNVRVDINGVEVVGREQLREEMRKLGVKYSHVEDFRTFDGRVILHGTLEINGQRRNTEIYASKINGRWHVEEYRFR | 1.14
SEEERRYELFLNLLREIMETGDEHRRSNLMDPHVRFDWNGVEFHGREMLEFIIERLHKEARLESYEIHRVTLIGDKIELRVREKRRVGNKIIEWDVIIIVRKIDGKWTIEEVEIR | 1.63
TEEEEQIKEMMEEMQHSYKTGDWRAISELLDPNVRMHIGDKEFHGREDLLRVFKHIRVKHLEIHHVRIIDGRAEVETTYTLVVDGVEHVHHTHIHSRKINGRWHIEEVYIH | 2.02
DEEEELREESEKFEHRAWETGDWKLLAELMDPHTRFITEDHDFHGRENMEKLLEDDLRRIKNATIRSIIIRRTHEINGRLLLIGIVDVEIDGKRVIRDVKYIKVKINGRWYITTMQVR | 0.796
DEREELIQRFLEMLIHLYLTGDEDWFLRMADPNARLHWNGKDRHGREIILEELIRLLRRFDHVRIDVKKFEVQGDKVIADGLEIYTQGDKRIEVDTKIVLTTVNGKLKTLVWHID | 0.642
DEHTKEMKHFLKEWLHNFFTGNEERWAHLADPHVRSDINGVELHGWDLLFRKMRKHREDLGAPHIRDFHIHSMHVINGVIHIDGEIDVDVNGVRIRSRVEIHLNVVNGRNKSEHYHHI | 0.68
DEEEELVLRIMHELLKLVLTGDFKRLSELLDPNVRMEIVVGDKHIEEHGRERMSHWILEWLRHARVKEFRIHHLIAYDGQTDSNVRLNVRIGDKEHRFRVIVILQVIDGKIRSLTIIFE | 1.51
DHREKEVHFMAKWIVEIFQTGDEDMWRHLADPDVRLDIVQGEKRDNNVGREVSEKTLKELRHHWGLERVEVRVDHIDHQGDKARVDGTVNINGVHFKTEIVIIVVDGRFKRVKYIIG | 1.39
SEEEKSAKIAVDLLLKSQLTGDEQTISELLDPNVRLDVNGREYHGREEYKKWFKHMVERADHMEIRLRHVHFYDGQVHVIGILIIRVNGKELRWEQILVVDKIDGRWLLSEFNFH | 2.63
DEHEEFAERNLKLLTELEETGNEDEIRKQADPHVRIEIGDKDIVGMHLWAKWVTHVKDRFDHIEVRLHRVHVQGDKILMHTQLILTQGNYRREFRTEVIIRKINGRWVLHSMHFH | 1.42
HEEEEEARDLLKKLLEDFETGNEESLHEYADPNTRTIWDGVEFHGREWMLEIIKQIRVHSVHIHDVRLIDGVLIVKGRMDGDINGQRHTLEVNIFFLKINGRWFFHHMEFE | 2.51
DEHEHAFRIIAEMLVEAMKTGNEETFSRLFDPNVRITWNGRHNHGRENYVEFIRQIRVDDLHIVLEDVRVIDGVIEVHGKMRIHGIVNGRRDEFIWESRVVIVKIDGRWHIESIRFD | 1.09
DEDHEQSHEMLELFVHSWKTGDWEILIKLLDPHARSIVNGREVHGREEISRYFKEELKKIPNMRIEVKIRSVEIQGDKVDNDVEIIIKYGDKLIRRKVHLLDLKVDGRWFLTDVTIE | 1.96
SEDDEITHYILQLWLDLVQTGDEEKLTDLHDPHVRNRINGREKHGRERAAELLSRLKKALGIDHIHRLMIEDFRIQGEKIQLHVRIKQEINGQEFTRSIELILLKINGRWSVESIDIR | 1.42
DEDTKLSKDAIRTFLESMVTGDEHILHRLADPNVKYSQGDKEYHGWEYAREFWSRVKNIRFHLKHYEVYGNKVHIEGELHVDGRHFEVHIVIIKFDGRWKIESHEIK | 1.19
DEEERSAKDFSERVFEEDRTGDEERWERLADPNVRLDINGKEHHGRELVMKYRLEFLRRVKNMVIRLEHIEIRVFDGKLTLHIHGVINVDGKTIHFDLIIIVRKVDGRWRIDEVIIEIK | 1.4
DEDEEDKKWMSEHLENLIHTGDEENLLKLVDPHAKVLVDGRTRHGRETLETWLDRFLRELGVDRVESRITHFDRIDGKVHVIMSIHVNGVDFISHSISQKVNGRWVIRSLHYDER | 0.587
SREEEIMRRFLELLILAFRTGDEDTYLKMLDPRVRLEINGRDLHGRETVREHYKDERDELGVSQFHIWVRDLRVQGDKIETEGHLEFDGRWLDIHFHAHFVDGRLKSFRIEIR | 1.32
DEDHELSKLAQEWFYKTMVTGDEETAERLADPNMRIDINGKSLHGRKWQRHIIRDLGVDHVEFHDVRTINGQLHISTTINVDGRNQHTHIIVLKIDGRWSLRSSEFK | 0.614
